Source: US20090061461A1 (published 2009)

Molecular target: T1, deleted in colorectal cancer (DCC) (human, UniProt P43146 26-1447)
T1 construct: Endogenous DCC of MCF-7 cells, detected by Western blot in the anti-HA immunoprecipitate; also called DCC/Unc-40
Assay: co-immunoprecipitation (anti-HA) from transfected MCF-7 cells, Western blot with anti-DCC AF5
Description: MCF-7 breast cancer cells were transfected by Lipofection with 5 μg of pcDNA3.1 containing HA-tagged mPR-wt, tagged mutant S56A, S180A, S56A/S180A, or tagged mutant S56A/C128S/[…]. After transfection of 2×10⁶ cells they were cultured in RPMI-Medium with 5% FCS. For IP the cells were trypsinized, counted and cell pellets were snap frozen and stored at −80° C.
Beads were separated by centrifugation and stored at −80° C. […] Incubation was performed for 16 h at 4° C. in a rotating tube. Then, beads were separated by centrifugation and washed twice with ice cold lysis buffer.
For PAGE gel-loading buffer/mercatoethanol was added to beads and the final supernatant, heated to 95° C. for 5 min and loaded on a 10% polyacrylamide gel. After separation of the proteins, western blot was performed onto nitrocellulose membrane. Transfer was controlled by Ponceau-red staining visualizing protein bands. After destaining the membranes were blocked for 16 h at 4° C. with 5% milkpowder/0.05% Tween. The next day membranes were incubated with mouse monoclonal anti-DCC antibody (1:20) (Biozol/Abcam) for 2 h at RT followed by biotinylated anti-mouse IgG antibody (Vecta Stain). For detection, membranes were incubated with streptavidin/HRP complex (DAKO) for 2 h at RT followed by enhanced chemiluminescence (ECL) treatment and measurement of chemiluminescence using a Lumiimager (Roche). As a loading control, membranes were incubated with rabbit polyclonal Actin I-19 antibody (Santa Cruz).

T1 sequence (P43146 26-1447 limits assumed): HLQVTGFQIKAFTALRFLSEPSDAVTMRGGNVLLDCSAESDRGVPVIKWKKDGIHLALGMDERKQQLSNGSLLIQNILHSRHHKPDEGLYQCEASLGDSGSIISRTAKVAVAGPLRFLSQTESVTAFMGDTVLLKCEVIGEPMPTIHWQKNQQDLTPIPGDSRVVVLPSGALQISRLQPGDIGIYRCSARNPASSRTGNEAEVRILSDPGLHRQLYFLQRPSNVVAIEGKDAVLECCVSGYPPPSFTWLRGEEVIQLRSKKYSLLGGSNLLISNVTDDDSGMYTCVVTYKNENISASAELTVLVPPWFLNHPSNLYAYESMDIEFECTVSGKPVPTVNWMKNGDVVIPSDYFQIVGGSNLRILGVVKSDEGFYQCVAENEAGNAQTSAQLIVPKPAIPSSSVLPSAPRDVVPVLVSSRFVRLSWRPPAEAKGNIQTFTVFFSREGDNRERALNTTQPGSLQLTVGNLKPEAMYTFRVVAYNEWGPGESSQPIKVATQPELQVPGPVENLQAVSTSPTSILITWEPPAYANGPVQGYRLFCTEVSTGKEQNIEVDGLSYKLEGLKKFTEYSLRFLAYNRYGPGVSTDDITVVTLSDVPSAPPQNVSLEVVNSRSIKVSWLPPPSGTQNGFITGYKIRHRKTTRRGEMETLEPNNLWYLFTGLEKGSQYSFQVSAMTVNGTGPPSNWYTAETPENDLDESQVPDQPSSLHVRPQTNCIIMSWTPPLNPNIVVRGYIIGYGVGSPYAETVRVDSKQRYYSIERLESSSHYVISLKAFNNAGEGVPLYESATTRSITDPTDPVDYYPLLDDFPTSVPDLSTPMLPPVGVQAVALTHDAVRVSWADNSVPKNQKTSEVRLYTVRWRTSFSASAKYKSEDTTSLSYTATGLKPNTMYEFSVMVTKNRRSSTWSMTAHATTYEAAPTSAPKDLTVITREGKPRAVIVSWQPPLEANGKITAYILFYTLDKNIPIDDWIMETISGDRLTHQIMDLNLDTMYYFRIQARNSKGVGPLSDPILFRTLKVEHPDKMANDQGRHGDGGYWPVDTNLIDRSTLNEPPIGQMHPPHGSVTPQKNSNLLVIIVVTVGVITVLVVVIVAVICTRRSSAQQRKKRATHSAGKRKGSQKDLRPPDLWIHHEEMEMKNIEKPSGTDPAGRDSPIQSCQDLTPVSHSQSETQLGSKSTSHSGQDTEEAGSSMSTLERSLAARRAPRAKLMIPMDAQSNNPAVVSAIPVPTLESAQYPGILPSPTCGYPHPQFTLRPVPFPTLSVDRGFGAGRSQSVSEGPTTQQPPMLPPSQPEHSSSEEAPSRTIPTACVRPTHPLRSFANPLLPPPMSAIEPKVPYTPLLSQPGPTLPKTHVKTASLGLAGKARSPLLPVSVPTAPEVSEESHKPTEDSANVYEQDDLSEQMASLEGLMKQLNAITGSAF

Row | binding result | Binder
1 | no binding | HA-tagged mPR mutant S56A/S180A (receptor, also called mPR-3HA S56A/S180A; not shown: C-terminal 3xHA tag) not shown
2 | no binding | HA-tagged mPR mutant S56A (receptor, also called mPR-3HA S56A; not shown: C-terminal 3xHA tag) not shown
3 | no binding | HA-tagged mPR mutant S180A (receptor, also called mPR-3HA S180A; not shown: C-terminal 3xHA tag) not shown
4 | no binding | HA-tagged mPR mutant S56A/C128S/S180A (receptor, not shown: C-terminal 3xHA tag) not shown
